The values that follow are results of earlier work, collected in PMC2913173.

The target of the series is Bcl-2 (Homo sapiens) (UniProt P10415). Nature of the series: fluorescence polarization. In general terms: Fluorescence polarisation rises when a labelled molecule tumbles more slowly, as on binding a larger partner.
Chain of Bcl-2 (Homo sapiens) (P10415 whole entry): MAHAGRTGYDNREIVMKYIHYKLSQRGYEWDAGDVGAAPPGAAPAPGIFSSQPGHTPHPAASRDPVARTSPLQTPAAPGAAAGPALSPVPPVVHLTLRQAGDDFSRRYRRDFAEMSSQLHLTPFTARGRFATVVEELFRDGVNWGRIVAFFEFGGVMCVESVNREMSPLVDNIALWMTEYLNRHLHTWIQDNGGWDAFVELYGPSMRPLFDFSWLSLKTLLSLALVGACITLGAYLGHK

For the substance Bak 72-87 (from UniProt Q16611), the dissociation constant (Kd) is 1600 nM.

For orientation: Kd means the free concentration of one partner at which half of the binding sites on the other are occupied at equilibrium, for simple one-to-one binding.
